Laboratory results reported in article PMC9830511, “Flot2 acts as a novel mediator of podocyte injury in proteinuric kidney disease” (International Journal of Biological Sciences, 2023).

Biological target: T1, GST-Flot2 full length (amino acids 1-428) (mouse, UniProt Q60634 1-428)
T1 construct: it may add a CBP tag as well; also called GST-tagged Flot2
T1 sequence (looked up): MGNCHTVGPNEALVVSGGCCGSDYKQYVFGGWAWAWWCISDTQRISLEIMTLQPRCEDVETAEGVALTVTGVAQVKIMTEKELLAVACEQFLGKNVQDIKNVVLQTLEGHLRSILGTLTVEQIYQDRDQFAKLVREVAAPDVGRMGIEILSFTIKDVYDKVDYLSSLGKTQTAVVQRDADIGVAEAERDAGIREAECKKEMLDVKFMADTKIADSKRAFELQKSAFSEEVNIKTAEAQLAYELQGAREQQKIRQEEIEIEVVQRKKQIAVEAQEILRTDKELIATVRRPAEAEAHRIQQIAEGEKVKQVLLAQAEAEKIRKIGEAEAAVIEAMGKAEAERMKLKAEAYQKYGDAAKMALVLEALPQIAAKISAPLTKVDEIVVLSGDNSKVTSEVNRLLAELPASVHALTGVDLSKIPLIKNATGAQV
Experiment: pull-down; GST pull-down: GST-Flot2 (full length) on GST resin, His-podocin (full length); overnight at 4 °C; eluted with 20 mM reduced glutathione; immunoblot with anti-His
Conditions: both partners purified

binding result: binds
B1: His-podocin full length (natural protein, mouse, UniProt Q91X05 1-385, looked up)
chain: MDSRARSSSREAHGRSSRSSSRDDKKAKAGRGSRGRARPDAGAERQSTGRTATRGEPRAPAATATVVDVDEVRGPGEEGTEVVALLESERPEEGIKPSGLGACEWLLVLASLIFIIMTFPFSIWFCIKVVQEYERVIIFRLGHLLPGRAKGPGLFFFLPCLDTYHKVDLRLQTLEIPFHEVVTKDMFIMEIDAVCYYRMENASLLLSSLAHVSKAIQFLVQTTMKRLLAHRSLTEILLERKSIAQDVKVALDAVTCIWGIKVERTEIKDVRLPAGLQHSLAVEAEAQRQAKVRVIAAEGEKAASESLRMAAEILSGTPAAVQLRYLHTLQSLSTEKPATVVLPLPFDMLSLLSSPGNRAQGSINYPSSSKPVEPLNPKKKDSPML
notes: Podocin, mouse, full-length cDNA in pET-28a(+); also called His-tagged podocin; His-tagged mouse podocin
